Source: patent US11306137B2, “Antibody binding agents that bind Acinetobactor and uses thereof” (priority 2015, dated 2022)
“Also recorded” adds a separate entry of the source.

Assays:
A. baumannii HUMC1 [1] = assay: Lethal bloodstream (i.v. tail-vein) infection model, survival; type: in vivo, mice; conditions: for protection against infection (survival): 100% lethal inoculum HUMC1 i.v., immediate treatment, FIG. 7A
[2] = test system: pili preparations from A. baumannii; assay: Western blot of pili preparations (proteinase K or periodate treated); type: binding
Protocol: Since it appeared that C8 bound to the pili on the surface of the bacteria, an established protocol was to sheer pili off the bacteria in an attempt to more accurately determine the epitope targeted by C8. To distinguish protein from carbohydrate targets, the pili preparation was divided into three portions: one fraction was treated with proteinase K, one fraction was treated with periodate to degrade carbohydrates, and one fraction was untreated. The pili preparations were run in a western blot and stained with C8 or isotype control MAb.

A. baumannii HUMC1 [3] = assay: Lung and blood bacterial burden and lung histopathology in aspiration pneumonia; conditions: 24 hr post-infection
A. baumannii HUMC1 [4] = assay: Lethal bloodstream (i.v. tail-vein) infection model, survival; type: in vivo, mice; conditions: for protection against infection (survival): 2×10^7 HUMC1 i.v., treated once i.v., FIG. 2; for survival: HUMC1 i.v., FIG. 3 / FIG. 7B
Protocol: To determine if C8 could treat, inhibit and/or prevent A. baumannii induced sepsis, mice were infected i.v. via the tail-vein with 2×10^7 hyper-virulent A. baumannii HUMC1 and were treated once i.v. with either protein-G purified C8 mAb (approximately 10 or 20 μg doses) or an isotype-control antibody in a saline buffer. […] In a second experiment, mice were similarly infected and the C8 MAb was administered once i.v. in saline buffer at a low (5 μg) and very low (0.5 μg) dose.
Male C3HeB/Fe mice (Jackson Labs) between the ages of 7-10 wk were used for all experiments. All animal work was conducted following approval by the Institutional Animal Use and Care Committee at the University of Southern California, in compliance with the recommendations in the Guide for the Care and Use of Laboratory Animals of the National Institutes of Health.
For the bloodstream infection model, mice were infected intravenously via the tail-vein with designated inocula of A. baumannii isolates. An oropharyngeal model of aspiration pneumonia that recapitulates hospital- or ventilator-associated pneumonia (VAP) relevant to ICU populations was used. In brief, mice were sedated with isoflurane, hung by their maxillary incisors, tongues held to prevent swallowing, and 50 μL of bacterial inocula was placed in the trachea to allow inoculation of the organisms into the lungs by reflexive aspiration.

A. baumannii HUMC1 [5] = assay: Blood bacterial density, plasma cytokines and sepsis biomarkers after i.v. infection
[6] = 22 hr post-infection, relative to controls

B1: C8: mouse IgG1-kappa monoclonal antibody from hybridoma 9.1C8 (ATCC PTA-122177); light chain SEQ ID NO:2, heavy chain SEQ ID NO:3 (antibody, listed as Mus musculus, V domains shown)
VH: EVQLQQSGPELVKPGASVKISCKASGYSFTGYTMNWVKQSHGKSLEWIGRINPYNGDSFYNQKFKGKATLTVDKSSNIAHMEFLSLTSEDSAVYYCGRSGDGPWFAYWGQGTLVTVSA
VL: LPLSLPVSLGDQASISCRSSQSIVHNNGNTYLEWYLQKPGQSPKLLIYKVSNRFSGVPDRFSGSGSGTDFTLKISRVEAEDLGVYYCFQGSHVPLTFGAGTKLEIKGSRS
With B1 as the molecule, how does the “protection against infection (survival)” value (A. baumannii HUMC1 [1]; high dose (approximately 150 μg)) read?
The value was 100%.

What about the “protection against infection (survival)” value (A. baumannii HUMC1 [1]; low dose (approximately 50 μg)) of the same molecule?
Its value is 100%.

And the “survival, delayed treatment” value (A. baumannii HUMC1 [1]; i.v. infection, treated i.p. (50 μg) at 30 min post-infection, FIG. 7C)?
Its value is “rescued from lethal infection”.

What about the “survival, delayed treatment (monotherapy)” value (A. baumannii HUMC1 [1]; i.v. infection, treated i.p. at 1 hr post-infection, C8 150 μg, colistin 0.0125 mg/kg, FIG. 7D) of the same molecule?
Its value is “not all mice survived; also recorded: minimally improved survival; also recorded: too late”.

What about the “western blot signal, periodate treated pili fraction” value ([2]; periodate treatment (degrades carbohydrates)) of the same molecule?
The value was “eliminated completely”.

And the “western blot signal, proteinase K treated pili fraction” value ([2]; proteinase K treatment)?
The value was “unchanged”.

And the “western blot signal, untreated pili fraction” value ([2]; untreated)?
The value was “large conglomeration at the top of the gel”.

And the “epitope / target on A. baumannii” value ([2]; western blots and flow binding to a capsule-mutant bacterial strain)?
The value was “binds to capsular polysaccharide”.

And the “reduction of bacterial burden in the blood vs control mice” value (A. baumannii HUMC1 [3]; 50 μg C8, FIG. 9C)?
Its value is 7 log.

And the “reduction of bacterial burden in the lungs vs control mice” value (A. baumannii HUMC1 [3]; 50 μg C8, FIG. 9C)?
Its value is 2 log.

What about the “lung histology (H&E)” value (A. baumannii HUMC1 [3]; FIG. 9D-E) of the same molecule?
Its value is “appeared normal; also recorded: maintained normal lung architecture”.

And the “protection against infection (survival)” value (A. baumannii HUMC1 [4]; approximately 10 μg)?
The value was 100%.

And the “protection against infection (survival)” value (A. baumannii HUMC1 [4]; approximately 20 μg)?
The value was 100%.

And the survival (A. baumannii HUMC1 [4]; 0.5 μg once i.v. immediately)?
Its survival is “markedly improved survival; also recorded: significantly improved survival”.

What about the survival (A. baumannii HUMC1 [4]; 5 μg once i.v. immediately) of the same molecule?
Its survival is “markedly improved survival; also recorded: fully protective”.

And the “plasma IL-6” value (A. baumannii HUMC1 [5]; 2 hr after infection, FIG. 8B)?
Its value is “significantly reduced”.

What about the “plasma TNF” value (A. baumannii HUMC1 [5]; 2 hr after infection, FIG. 8B) of the same molecule?
Its value is “significantly reduced”.

And the anion gap (A. baumannii HUMC1 [5]; [6])?
The anion gap was “normal”.

What about the base deficit (A. baumannii HUMC1 [5]; [6]) of the same molecule?
Its base deficit is “normal”.

And the blood glucose (A. baumannii HUMC1 [5]; [6])?
The blood glucose was “normal”.

And the “blood pH” value (A. baumannii HUMC1 [5]; [6])?
The value was “normal”.

And the serum bicarbonate (A. baumannii HUMC1 [5]; [6])?
The serum bicarbonate was “normal”.

What about the “plasma IL-1β” value (A. baumannii HUMC1 [5]; 22 hr post-infection, FIG. 8B) of the same molecule?
The value was “virtually undetectable”.

And the “plasma IL-10” value (A. baumannii HUMC1 [5]; 22 hr post-infection, FIG. 8B)?
The value was “virtually undetectable”.

And the “blood urea nitrogen (BUN) levels” value (A. baumannii HUMC1 [5]; 22 hr post-infection, FIG. 8C)?
Its value is “baseline”.

What about the “physiology (biomarkers of sepsis)” value (A. baumannii HUMC1 [5]; between 2 and 24 hours, FIG. 8C) of the same molecule?
Its value is “maintained baseline physiology”.

And the “bacterial density in the blood over time” value (A. baumannii HUMC1 [5]; over the next 20 h, 5 μg i.v., FIG. 8A)?
The value was “continued to decrease”.

What about the “lower bacterial density in the blood than isotype control” value (A. baumannii HUMC1 [5]; two hours after treatment, 5 μg i.v., FIG. 8A) of the same molecule?
The value was 1,000 fold.
